The values below come from patent US20210275644A1 (OCTAPHARMA, published 2021).

Assay [1] deals with T1, vWF C-terminal fragment (V8 protease digest of plasma derived vWF) (human, UniProt P04275 2129-2813, biotinylated with EZ-Link Sulfo-NHS-Biotin).
T1 construct: the real molecule is only its C-terminal part; also called C-terminal vWF fragment
Nature of the assay: ELISA: SIGLEC-Fc captured on a protein A plate (500 ng/well), biotinylated vWF fragment at 1 µg/mL, streptavidin-HRP, A492, single concentration.

Assay [2] addresses T2, Seq11 (recombinant vWF fragment AA 1-505 of SEQ ID NO: 1 with C-terminal Strep-Tag, from HEK 293) (human, UniProt P04275 764-1268, four O-glycosylation sites 485, 492, 493, 500 occupied (core 1, core 2 and/or extended core 1, sialylated)).
T2 construct: Expressed in HEK293 / MEXi-293 cells, purified on Strep-Tactin; not shown: C-terminal Twin-Strep-tag of the pDSG vector (IBA)
The experiment in a line: SIGLEC ELISA, Scatchard analysis of the binding curve (apparent KD).

The target of assay [3] is T2, Seq11 (recombinant vWF fragment AA …). Nature of the assay: SIGLEC ELISA with Scatchard analysis (GraphPad Prism); no unit beside the number, concentration axis in µM [panel SIGLEC 9].
The target of assay [4] is T3, full length plasmatic VWF (Wilate, Octapharma) (human, UniProt P04275 764-2813).
T3 construct: multimer
Nature of the assay: SPR (Biacore 3000): VWF immobilised on a CM5 chip by amine coupling, FVIII injected 0.2-45 nM; mean of five measurements.

In assay [5] the target is T2, Seq11 (recombinant vWF fragment AA …). The experiment in a line: SIGLEC ELISA with Scatchard analysis (GraphPad Prism); no unit beside the number, concentration axis in µM [panel SIGLEC 5].
For assay [6], the target named is T4, Recombinant SIG-10 Fc-fusion protein (R&D Systems) (human, UniProt Q96LC7 17-546, limits assumed).
T4 construct: Bought from R&D Systems; Held on the plate by protein A; not shown: Fc part of the bought fusion protein
T4 sequence (looked up): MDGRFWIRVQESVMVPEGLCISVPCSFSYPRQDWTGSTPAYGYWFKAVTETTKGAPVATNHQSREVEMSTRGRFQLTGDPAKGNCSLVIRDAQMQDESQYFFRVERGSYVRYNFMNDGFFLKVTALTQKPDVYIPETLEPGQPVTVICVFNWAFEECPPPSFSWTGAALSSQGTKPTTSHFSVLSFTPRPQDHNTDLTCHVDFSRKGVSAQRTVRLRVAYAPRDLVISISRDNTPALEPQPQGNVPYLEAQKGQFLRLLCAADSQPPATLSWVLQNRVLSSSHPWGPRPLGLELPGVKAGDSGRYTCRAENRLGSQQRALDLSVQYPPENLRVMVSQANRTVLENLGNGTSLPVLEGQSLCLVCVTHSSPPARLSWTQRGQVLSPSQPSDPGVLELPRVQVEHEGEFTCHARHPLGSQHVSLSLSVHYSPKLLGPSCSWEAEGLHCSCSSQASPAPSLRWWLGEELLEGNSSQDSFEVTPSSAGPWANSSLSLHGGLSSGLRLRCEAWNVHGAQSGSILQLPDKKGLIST
Nature of the assay: ELISA: SIGLEC-Fc captured on a protein A plate (500 ng/well), biotinylated cluster fragment at 4 µg/mL, streptavidin-HRP, A492, single concentration.

In assay [7] the target is T2, Seq11 (recombinant vWF fragment AA …). Nature of the assay: SIGLEC ELISA with Scatchard analysis (GraphPad Prism); no unit beside the number, concentration axis in µM [panel SIGLEC 7].

Where no end group is shown, it is not given here.

T1 sequence (P04275 2129-2813 limits assumed): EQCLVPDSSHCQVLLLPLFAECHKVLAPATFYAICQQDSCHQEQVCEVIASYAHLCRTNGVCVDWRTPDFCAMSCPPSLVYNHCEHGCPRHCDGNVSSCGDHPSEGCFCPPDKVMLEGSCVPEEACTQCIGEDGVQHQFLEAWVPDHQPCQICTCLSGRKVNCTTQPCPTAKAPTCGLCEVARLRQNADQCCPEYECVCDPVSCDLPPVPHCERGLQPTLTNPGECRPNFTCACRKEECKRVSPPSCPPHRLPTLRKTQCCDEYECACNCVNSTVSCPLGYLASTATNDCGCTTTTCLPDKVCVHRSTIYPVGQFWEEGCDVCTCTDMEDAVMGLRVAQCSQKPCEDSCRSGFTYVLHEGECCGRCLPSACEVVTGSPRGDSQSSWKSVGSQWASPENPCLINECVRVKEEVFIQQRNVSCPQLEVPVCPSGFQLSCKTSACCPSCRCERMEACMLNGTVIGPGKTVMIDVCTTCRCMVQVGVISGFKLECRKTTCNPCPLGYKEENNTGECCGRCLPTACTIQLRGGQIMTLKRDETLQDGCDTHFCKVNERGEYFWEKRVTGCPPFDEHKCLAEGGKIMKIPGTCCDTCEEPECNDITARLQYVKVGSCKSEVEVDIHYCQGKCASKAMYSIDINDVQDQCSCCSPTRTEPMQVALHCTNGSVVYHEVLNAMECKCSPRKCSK
T2 sequence (P04275 764-1268): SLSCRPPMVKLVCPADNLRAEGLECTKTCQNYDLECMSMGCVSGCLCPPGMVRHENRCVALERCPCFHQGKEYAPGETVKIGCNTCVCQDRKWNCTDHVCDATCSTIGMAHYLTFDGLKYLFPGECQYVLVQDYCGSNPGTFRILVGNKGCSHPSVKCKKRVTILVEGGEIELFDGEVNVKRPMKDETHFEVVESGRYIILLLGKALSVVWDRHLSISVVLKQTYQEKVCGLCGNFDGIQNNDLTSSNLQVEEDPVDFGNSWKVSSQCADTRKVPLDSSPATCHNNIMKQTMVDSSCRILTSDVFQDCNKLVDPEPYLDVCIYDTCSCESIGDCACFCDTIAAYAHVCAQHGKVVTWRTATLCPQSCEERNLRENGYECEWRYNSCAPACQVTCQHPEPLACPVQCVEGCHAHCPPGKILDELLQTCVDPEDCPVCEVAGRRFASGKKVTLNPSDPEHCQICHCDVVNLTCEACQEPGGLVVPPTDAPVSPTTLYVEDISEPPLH
T3 sequence (P04275 764-2813 limits assumed): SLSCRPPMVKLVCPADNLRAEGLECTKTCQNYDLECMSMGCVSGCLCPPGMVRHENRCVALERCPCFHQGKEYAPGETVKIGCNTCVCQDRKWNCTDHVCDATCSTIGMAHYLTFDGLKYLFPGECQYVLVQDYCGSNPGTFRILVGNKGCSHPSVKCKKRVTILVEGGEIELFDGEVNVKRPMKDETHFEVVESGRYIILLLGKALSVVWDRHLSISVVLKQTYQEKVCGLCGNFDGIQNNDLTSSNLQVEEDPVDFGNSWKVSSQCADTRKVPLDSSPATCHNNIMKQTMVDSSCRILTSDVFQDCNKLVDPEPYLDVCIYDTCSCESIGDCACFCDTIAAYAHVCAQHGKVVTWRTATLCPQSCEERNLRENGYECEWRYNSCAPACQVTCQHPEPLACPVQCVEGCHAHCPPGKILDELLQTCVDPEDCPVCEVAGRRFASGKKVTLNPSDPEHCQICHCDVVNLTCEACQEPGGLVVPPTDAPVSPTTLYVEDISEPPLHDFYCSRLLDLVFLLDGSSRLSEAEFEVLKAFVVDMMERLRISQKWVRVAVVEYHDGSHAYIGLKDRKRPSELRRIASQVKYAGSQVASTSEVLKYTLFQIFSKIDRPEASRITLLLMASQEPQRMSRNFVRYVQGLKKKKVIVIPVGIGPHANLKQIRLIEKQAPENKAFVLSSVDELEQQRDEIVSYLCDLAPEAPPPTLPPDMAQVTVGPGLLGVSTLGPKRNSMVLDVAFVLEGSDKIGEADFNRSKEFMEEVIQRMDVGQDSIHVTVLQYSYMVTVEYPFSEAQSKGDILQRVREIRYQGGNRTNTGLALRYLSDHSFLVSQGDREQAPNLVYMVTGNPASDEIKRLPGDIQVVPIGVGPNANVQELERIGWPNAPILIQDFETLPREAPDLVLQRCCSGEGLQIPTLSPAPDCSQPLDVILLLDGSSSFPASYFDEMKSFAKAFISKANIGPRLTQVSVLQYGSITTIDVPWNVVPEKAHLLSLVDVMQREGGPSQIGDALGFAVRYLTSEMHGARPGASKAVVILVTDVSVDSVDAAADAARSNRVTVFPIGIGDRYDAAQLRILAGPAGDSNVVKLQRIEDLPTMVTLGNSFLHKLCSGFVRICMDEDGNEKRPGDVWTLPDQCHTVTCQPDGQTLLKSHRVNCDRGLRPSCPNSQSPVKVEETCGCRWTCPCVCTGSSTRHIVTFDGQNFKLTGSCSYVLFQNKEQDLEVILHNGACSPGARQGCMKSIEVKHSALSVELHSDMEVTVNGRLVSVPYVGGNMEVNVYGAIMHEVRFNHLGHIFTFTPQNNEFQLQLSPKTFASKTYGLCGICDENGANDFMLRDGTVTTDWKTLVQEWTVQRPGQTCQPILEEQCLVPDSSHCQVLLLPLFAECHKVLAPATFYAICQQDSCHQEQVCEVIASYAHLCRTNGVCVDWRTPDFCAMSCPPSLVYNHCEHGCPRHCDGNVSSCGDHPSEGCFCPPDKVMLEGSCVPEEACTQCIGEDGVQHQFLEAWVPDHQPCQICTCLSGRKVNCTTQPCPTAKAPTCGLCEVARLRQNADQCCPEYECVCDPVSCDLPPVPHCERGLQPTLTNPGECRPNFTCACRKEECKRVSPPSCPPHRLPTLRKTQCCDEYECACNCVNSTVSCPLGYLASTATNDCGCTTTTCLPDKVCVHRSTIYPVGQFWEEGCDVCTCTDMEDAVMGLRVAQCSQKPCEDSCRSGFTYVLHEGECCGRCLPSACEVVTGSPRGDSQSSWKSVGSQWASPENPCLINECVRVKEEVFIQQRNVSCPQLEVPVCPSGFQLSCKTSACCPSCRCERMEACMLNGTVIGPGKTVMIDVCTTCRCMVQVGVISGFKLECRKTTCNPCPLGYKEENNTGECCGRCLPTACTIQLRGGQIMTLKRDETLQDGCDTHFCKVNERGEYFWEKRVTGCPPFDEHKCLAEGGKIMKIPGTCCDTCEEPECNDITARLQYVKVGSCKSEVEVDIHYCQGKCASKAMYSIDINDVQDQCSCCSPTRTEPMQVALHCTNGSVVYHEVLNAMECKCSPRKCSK

B1: Recombinant SIG-9 Fc-fusion protein (R&D Systems) (Fc fusion)
chain: QTSKLLTMQSSVTVQEGLCVHVPCSFSYPSHGWIYPGPVVHGYWFREGANTDQDAPVATNNPARAVWEETRDRFHLLGDPHTKNCTLSIRDARRSDAGRYFFRMEKGSIKWNYKHHRLSVNVTALTHRPNILIPGTLESGCPQNLTCSVPWACEQGTPPMISWIGTSVSPLDPSTTRSSVLTLIPQPQDHGTSLTCQVTFPGASVTTNKTVHLNVSYPPQNLTMTVFQGDGTVSTVLGNGSSLSLPEGQSLRLVCAVDAVDSNPPARLSLSWRGLTLCPSQPSNPGVLELPWVHLRDAAEFTCRAQNPLGSQQVYLNVSLQSKATSGVTQG
notes: Bought from R&D Systems; Held on the plate by protein A; also called SIGLEC 9; not shown: Fc part of the bought fusion protein
As to B1, the binding result in assay [1] is on record as “no binding (tested: 1 µg/mL)”. The Kd in assay [2] and in assay [3] was 591 nM in each case.

B2: FVIII (Nuwiq, Octapharma) (other, UniProt P00451 20-2351, looked up)
chain: ATRRYYLGAVELSWDYMQSDLGELPVDARFPPRVPKSFPFNTSVVYKKTLFVEFTDHLFNIAKPRPPWMGLLGPTIQAEVYDTVVITLKNMASHPVSLHAVGVSYWKASEGAEYDDQTSQREKEDDKVFPGGSHTYVWQVLKENGPMASDPLCLTYSYLSHVDLVKDLNSGLIGALLVCREGSLAKEKTQTLHKFILLFAVFDEGKSWHSETKNSLMQDRDAASARAWPKMHTVNGYVNRSLPGLIGCHRKSVYWHVIGMGTTPEVHSIFLEGHTFLVRNHRQASLEISPITFLTAQTLLMDLGQFLLFCHISSHQHDGMEAYVKVDSCPEEPQLRMKNNEEAEDYDDDLTDSEMDVVRFDDDNSPSFIQIRSVAKKHPKTWVHYIAAEEEDWDYAPLVLAPDDRSYKSQYLNNGPQRIGRKYKKVRFMAYTDETFKTREAIQHESGILGPLLYGEVGDTLLIIFKNQASRPYNIYPHGITDVRPLYSRRLPKGVKHLKDFPILPGEIFKYKWTVTVEDGPTKSDPRCLTRYYSSFVNMERDLASGLIGPLLICYKESVDQRGNQIMSDKRNVILFSVFDENRSWYLTENIQRFLPNPAGVQLEDPEFQASNIMHSINGYVFDSLQLSVCLHEVAYWYILSIGAQTDFLSVFFSGYTFKHKMVYEDTLTLFPFSGETVFMSMENPGLWILGCHNSDFRNRGMTALLKVSSCDKNTGDYYEDSYEDISAYLLSKNNAIEPRSFSQNSRHQAYRYRRGEITRTTLQSDQEEIDYDDTISVEMKKEDFDIYDEDENQSPRSFQKKTRHYFIAAVERLWDYGMSSSPHVLRNRAQSGSVPQFKKVVFQEFTDGSFTQPLYRGELNEHLGLLGPYIRAEVEDNIMVTFRNQASRPYSFYSSLISYEEDQRQGAEPRKNFVKPNETKTYFWKVQHHMAPTKDEFDCKAWAYFSDVDLEKDVHSGLIGPLLVCHTNTLNPAHGRQVTVQEFALFFTIFDETKSWYFTENMERNCRAPCNIQMEDPTFKENYRFHAINGYIMDTLPGLVMAQDQRIRWYLLSMGSNENIHSIHFSGHVFTVRKKEEYKMALYNLYPGVFETVEMLPSKAGIWRVECLIGEHLHAGMSTLFLVYSNKCQTPLGMASGHIRDFQITASGQYGQWAPKLARLHYSGSINAWSTKEPFSWIKVDLLAPMIIHGIKTQGARQKFSSLYISQFIIMYSLDGKKWQTYRGNSTGTLMVFFGNVDSSGIKHNIFNPPIIARYIRLHPTHYSIRSTLRMELMGCDLNSCSMPLGMESKAISDAQITASSYFTNMFATWSPSKARLHLQGRSNAWRPQVNNPKEWLQVDFQKTMKVTGVTTQGVKSLLTSMYVKEFLISSSQDGHQWTLFFQNGKVKVFQGNQDSFTPVVNSLDPPLLTRYLRIHPQSWVHQIALRMEVLGCEAQDLY
notes: Commercial product; also called recombinant FVIII; factor VIII
Consider B2, for which, in assay [4], the Kd amounted to 0.3 nM.

B3: Recombinant SIG-5 Fc-fusion protein (R&D Systems) (Fc fusion)
chain: EKPVYELQVQKSVTVQEGLCVLVPCSFSYPWRSWYSSPPLYVYWFRDGEIPYYAEVVATNNPDRRVKPETQGRFRLLGDVQKKNCSLSIGDARMEDTGSYFFRVERGRDVKYSYQQNKLNLEVTALIEKPDIHFLEPLESGRPTRLSCSLPGSCEAGPPLTFSWTGNALSPLDPETTRSSELTLTPRPEDHGTNLTCQMKRQGAQVTTERTVQLNVSYAPQTITIFRNGIALEILQNTSYLPVLEGQALRLLCDAPSNPPAHLSWFQGSPALNATPISNTGILELRRVRSAEEGGFTCRAQHPLGFLQIFLNLSVYSLPQLLGPSCSWEAEGLHCRCSFRARPAPSLCWRLEEKPLEGNSSQGSFKVNSSSAGPWANSSLILHGGLSSDLKVSCKAWNIYGSQSGSVLLLQGRSNLGT
notes: Bought from R&D Systems; Held on the plate by protein A; also called SIGLEC 5; not shown: Fc part of the bought fusion protein
As for B3, in assay [1], the binding result is recorded as “no binding (tested: 1 µg/mL)”. Besides, the Kd in assay [2] and in assay [5] was 494 nM each time.

B4: Cluster 2 fragment (tryptic glycopeptide of plasma derived vWF, AA 674 to 728/729) (peptide)
peptide: AFVLSSVDELEQQRDEIVSYLC(Maleimide‑PEG2‑Biotin)DLAPEAPPPTLPPDMAQVTVGPGLLGVSTLGPKR
modifications: also: natural O-glycans (sialylated core 2), sites not given here
notes: also called Cluster II; O-glycosylation Cluster II
As to B4, the binding result in assay [6] is reported as “no binding (tested: 4 µg/mL)”.

B5: Recombinant SIG-7 Fc-fusion protein (R&D Systems) (Fc fusion)
chain: QKSNRKDYSLTMQSSVTVQEGMCVHVRCSFSYPVDSQTDSDPVHGYWFRAGNDISWKAPVATNNPAWAVQEETRDRFHLLGDPQTKNCTLSIRDARMSDAGRYFFRMEKGNIKWNYKYDQLSVNVTALTHRPNILIPGTLESGCFQNLTCSVPWACEQGTPPMISWMGTSVSPLHPSTTRSSVLTLIPQPQHHGTSLTCQVTLPGAGVTTNRTIQLNVSYPPQNLTVTVFQGEGTASTALGNSSSLSVLEGQSLRLVCAVDSNPPARLSWTWRSLTLYPSQPSNPLVLELQVHLGDEGEFTCRAQNSLGSQHVSLNLSLQQEYTGKMRPVSGVLLGAVG
notes: Bought from R&D Systems; Held on the plate by protein A; also called SIGLEC 7; not shown: Fc part of the bought fusion protein
As for B5, in assay [1], the binding result was “no binding (tested: 1 µg/mL)”. The Kd in assay [2] and in assay [7] was 371 nM in each case.
